Measurements: patent US8217137B2, “Fullerene-based amino acids” (William Marsh Rice University, priority 2004, dated 2012)
Square brackets hold non-standard residues; d marks the D form. Ends that are not written are not given here. BAA = bucky amino acid

Test system: Rat maxillary incisor pulp cells (RPC-C2A)
Experiment: Cell viability assay (Live-Dead Assay Kit), cytotoxicity of fullerene peptide
Assay type: cell-based
Settings: 4, 40 and 400 μM peptide solutions in PBS, 100 μL mixed with 1.9 mL medium, 48 hrs incubation, Calcein AM / EthD-1
Procedure: Rat maxillary incisor pulp cells (RPC-C2A) were seeded on a 24-well tissue culture plate at 3540 cells per well and incubated for 24 hr at 37° C. in a 5% CO2 environment. Dulbecco's Modified Eagle's Medium (DMEM; Invitrogen, NY) was prepared with 10% fetal bovine serum (FBS; BioWhitaker, Walkersville, Md.), 2 mM Amphothericin B, 1 unit/ml penicillin, and 100 mg/l streptomycin (Invitrogen, NY). Three different concentrations of Fullerene peptide solutions (4, 40, and 400 μM) were prepared in PBS and sterilized using 0.2 μm filter syringe. 100 μL of the solution was mixed with 1.9 mL of medium and added to cells. Control was also prepared by adding PBS buffer solution without peptide-modified fullerene to cells. After 48 hrs of incubation, cell viability was determined using Live-Dead Assay Kit (Molecular Probes, Inc., Eugene, Oreg.). Calcein AM is converted to a green fluorescent product within live cells due to enzymatic activity, while ethidium homodimer-1, a red fluorescent compound, accumulates in dead cells due to increased membrane permeability. After removing medium, cells were rinsed with PBS solution twice. Cells in each well was incubated with 0.4 mL of 4 μM EthD-1 and 2 μM of Calcein AM in PBS for 30 min and observed under fluorescent microscope.
For the statistical analysis, the data were compared with two-tailed, unpaired t-tests. […]

BAA-Glu-Glu-Glu-Glu-Gly-Gly-Gly-Ser-COOH ([BAA]EEEEGGGS-OH) [fullerene-based peptide, peptide with a bucky amino acid (BAA) at the N-terminus]
toxicity to the cells (cell viability): no toxicity
